Experimental data reported in patent US11319530B2, “Host cells and systems for membrane protein expression” (President and Fellows of Harvard College, priority 2015, dated 2022).
Residue numbers refer to the chain shown, from its start. In names and notes the source's numbering stands.

T1: rat VKORc1ΔAAR expressed in FSH231 (Rattus norvegicus, UniProt Q6TEK4, DEL31-33)
T1 construct: expressed in transfected cells; host or cells: E. coli FSH231 (ΔdsbB, yidCT362I, hslVC160Y, malF-lacZ102 reporter), pTrc99a plasmid
T1 sequence (Q6TEK4 with tags, fused parts or gaps DEL31-33): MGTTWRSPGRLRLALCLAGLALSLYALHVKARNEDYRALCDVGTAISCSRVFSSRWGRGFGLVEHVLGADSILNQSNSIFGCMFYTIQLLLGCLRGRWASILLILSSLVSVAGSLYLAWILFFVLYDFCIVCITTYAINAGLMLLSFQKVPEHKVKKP

T2: VKORc1ΔAAR, G60D (Rattus norvegicus, UniProt Q6TEK4, C16A/C85A/C96A/DEL31-33/G60D)
T2 construct: expressed in transfected cells; host or cells: E. coli FSH231 (ΔdsbB, yidCT362I, hslVC160Y), pTrc99a plasmid, co-transformed with pBAD43 (empty, or carrying DsbA or DsbAC33A)
T2 sequence (Q6TEK4 with tags, fused parts or gaps C16A/DEL31-33/G60D/C85A/C96A): T1 sequence (Q6TEK4 with tags, fused parts or gaps DEL31-33) with C16A, G57D, C82A, C93A

B1: T7-tagged rat VKORc1ΔAAR, G60D lacking all nonessential cysteines (pFH436: rat VKORc1 C16A ΔA31AR G60D C85A C96A-linker-T7 tag) (enzyme)
chain: MGTTWRSPGRLRLALALAGLALSLYALHVKARNEDYRALCDVGTAISCSRVFSSRWDRGFGLVEHVLGADSILNQSNSIFGAMFYTIQLLLGALRGRWASILLILSSLVSVAGSLYLAWILFFVLYDFCIVCITTYAINAGLMLLSFQKVPEHKVKKPGTGGGSGGGSGS
notes: Expressed in E. coli FSH231 (ΔdsbB, yidCT362I, hslVC160Y); not shown: C-terminal T7 tag
B2: rat VKORc1 C16A C51A ΔA31AR G60D C85A C96A-linker-T7 tag (pFH438) (enzyme)
chain: B1 chain with C48A
notes: also called VKORc1 lacking C51; not shown: C-terminal T7 tag
B3: rat VKORc1 C16A C51A ΔA31AR G60D C85A C96A C132A-linker-T7 tag (pFH440) (enzyme)
chain: B1 chain with C48A, C129A
notes: also called VKORc1 with removal of C132 accompanied by the removal of C51; not shown: C-terminal T7 tag
B4: rat VKORc1 C16A ΔA31AR G60D C85A C96A C132A-linker-T7 tag (pFH439) (enzyme)
chain: B1 chain with C129A
notes: also called VKORc1 in the absence of C132; not shown: C-terminal T7 tag
B5: FLAG-tagged E. coli DsbAC33A (pFH442: pFH441 C33A-FLAG) (enzyme, UniProt P0AEG4 20-208, looked up)
chain: AQYEDGKQYTTLEKPVAGAPQVLEFFSFFCPHAYQFEEVLHISDNVKKKLPEGVKMTKYHVNFMGGDLGKDLTQAWAVAMALGVEDKVTVPLFEGVQKTQTIRSASDIRDVFINAGIKGEEYDAAWNSFVVKSLVAQQEKAAADVQLRGVPAMFVNGKYQLNPQGMDTSNMDVFVQQYADTVKYLSEKK
notes: by common usage C33 of DsbA is counted on the mature (periplasmic) protein, not on the precursor; Expressed from pBAD43 in E. coli; also called C33A mutant of DsbA; not shown: FLAG tag
B6: DsbAC33A: C33A mutant of E. coli DsbA, expressed from pBAD43; forms mixed disulfide with VKORc1 (protein)
chain: B5 chain
modifications: left off: small tags and cut ends

Experiments:
[1] = molecular target: T1, rat VKORc1ΔAAR expressed in FSH231; assay: blue/white agar assay in 384 well plates using the β-Gal^dbs reporter (dose-dependent inhibition of VKORc1); type: cell-based; conditions: FIG. 4 Panel A; for dose-dependent inhibition of VKORc1: rat VKORc1ΔAAR expressed in E. coli FSH231 (ΔdsbB, yidCT362I, hsIVC160Y)
[2] = molecular target: B5; assay: non-reducing SDS-PAGE of TCA-precipitated proteins of FSH231, immunoblot with anti-T7 or anti-FLAG; mixed disulfide
[3] = molecular target: B5; assay: non-reducing SDS-PAGE immunoblot; mixed disulfide
[4] = molecular target: B5; assay: non-reducing SDS-PAGE of TCA-precipitated proteins of FSH231, immunoblot with anti-T7 or anti-FLAG
[5] = molecular target: the molecule itself; assay: immunoblot, FIG. 4 Panel C
VKORc1ΔAAR, G60D = molecular target: T2, VKORc1ΔAAR, G60D; assay: motility assay, low agar motility plates of FSH231; type: cell-based; conditions: FSH231 co-expressing VKORc1ΔAAR, G60D and DsbAC33A, in the presence of DsbAwt; FIG. 4 Panel B
Method: Bacterial motility was assayed by stabbing a colony into 0.3% minimal medium Agar plates containing M63 salts, 0.2% Glucose, IPTG, and carbenicillin. Motility was examined after two days of growth at 30 C. When using arabinose to induce expression from pBAD promoter, 0.5% glycerol was used instead of glucose in addition to 0.1% NZ to enhance motility.
As expected, the function of VKORc1ΔAAR in disulfide bond formation was dependent on E. coli DsbA, the presumed substrate of the now functional VKORc1ΔAAR. To determine whether VKORc1ΔAAR interacts directly with DsbA in vivo, we used a C33A mutant of DsbA which forms a detectable stable complex with DsbB and asked whether a similar scenario occurs with VKORc1ΔAAR (23). We used the highly expressed VKORc1ΔAAR, G60D lacking all nonessential cysteines expressed in a ΔdsbB, yidCT362I, hsIVC160Y strain (FSH231). […] When TCA-precipitated proteins of FSH231 strain expressing both T7-tagged VKORc1ΔAAR, G60D and FLAG-tagged DsbAC33A are run on a non-reducing SDS-PAGE and probed by either anti-T7 or FLAG tags antibodies, a VKORc1-DsbA complex band around 40 kDa can be seen (FIG. 4., Panel C) that is DTT-sensitive. The complex formation is also observed when using VKORc1 lacking C51, but disappears in the absence of C46 or C132, unless the removal of C132 is accompanied by the removal of C51 (FIG. 4., Panel C). […]

Molecule: O=C1c2ccccc2C(=O)C1c1ccc(Br)cc1 [bromindione]
- dose-dependent inhibition of VKORc1 [1]: inhibited
- inhibitory effect compared with warfarin ([1]; rat VKORc1ΔAAR expressed in E. coli FSH231): stronger inhibitory effects than warfarin

Molecule: CC(=O)CC(c1ccccc1)c1c(O)c2ccccc2oc1=O (stereo not drawn) [warfarin]
- dose-dependent inhibition of VKORc1 [1]: inhibited

Molecule: B1
- binding result [2]: binds

Molecule: B2
- binding result [3]: binds

Molecule: B3
- binding result [3]: binds

Molecule: B4
- binding result [4]: no binding

Molecule: B5
- binding result [5]: binds

Molecule: B6
- inhibition of VKORc1 function (motility) (VKORc1ΔAAR, G60D): inhibits the function of VKORc1
